Source: patent US20240109955A1

Tests used:
Assay in all cases: cell-based or functional assay
[1] = target: SARS-CoV-2 spike protein, Omicron sublineage BA.4.7 (R346S, F486V) (SARS-CoV-2) (UniProt P0DTC2)
[2] = target: SARS-CoV-2 spike protein, Omicron sublineage BA.4.6 (R346T, F486V) (SARS-CoV-2) (UniProt P0DTC2)
[3] = target: SARS-CoV-2 spike protein, Omicron sublineage BF.7 (R346T, F486V) (SARS-CoV-2) (UniProt P0DTC2)
[4] = target: SARS-CoV-2 spike protein, Omicron sublineage BQ.1.1 (R346T, K444T, F486V) (SARS-CoV-2) (UniProt P0DTC2)
[5] = target: SARS-CoV-2 spike protein, Omicron sublineage BA.1.1 (R346K) (SARS-CoV-2) (UniProt P0DTC2)
[6] = target: SARS-CoV-2 spike (S) protein, Omicron variant BA.2.12.1 (SARS-CoV-2) (UniProt P0DTC2)
[7] = target: SARS-CoV-2 spike (S) protein, Omicron variant BA.1 (SARS-CoV-2) (UniProt P0DTC2)
[8] = target: SARS-CoV-2 spike (S) protein, Omicron variant BA.2 (SARS-CoV-2) (UniProt P0DTC2)
[9] = target: SARS-CoV-2 spike protein, Mu variant (B.1.621) (SARS-CoV-2)
[10] = target: SARS-CoV-2 spike protein, Delta variant (B.1.617.2) (SARS-CoV-2)
[11] = target: SARS-CoV-2 spike protein, Iota variant (B.1.526) (SARS-CoV-2)
[12] = target: SARS-CoV-2 spike protein, Kappa variant (B.1.617.1) (SARS-CoV-2)
[13] = target: SARS-CoV-2 spike protein, Delta variant (AY.1) (SARS-CoV-2)
[14] = target: SARS-CoV-2 spike protein, Gamma variant (P.1) (SARS-CoV-2)
[15] = target: SARS-CoV-2 spike protein, C.1.2 variant (SARS-CoV-2)
[16] = target: SARS-CoV-2 spike protein, Lambda variant (C.37) (SARS-CoV-2)
[17] = target: SARS-CoV-2 spike protein, Beta variant 1 (B.1.351 v1) (SARS-CoV-2)
[18] = target: SARS-CoV-2 spike protein, Alpha variant (B.1.1.7) (SARS-CoV-2)
[19] = target: SARS-CoV-2 spike protein, Omicron variant (B.1.1.529) (SARS-CoV-2) (UniProt P0DTC2)

Chain of A19-46 mAb (antibody) (VH): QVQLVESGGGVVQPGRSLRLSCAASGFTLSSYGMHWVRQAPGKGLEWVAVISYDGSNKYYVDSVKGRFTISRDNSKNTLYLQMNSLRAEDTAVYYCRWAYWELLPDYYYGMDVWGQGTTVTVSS
Chain of A19-46 mAb (antibody) (VL): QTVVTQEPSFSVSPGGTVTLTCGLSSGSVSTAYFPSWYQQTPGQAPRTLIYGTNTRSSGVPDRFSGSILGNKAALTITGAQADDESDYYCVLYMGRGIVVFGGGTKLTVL

Row | Substance | IC50, pseudovirus neutralization [6] | IC80, pseudovirus neutralization [6] | IC50, pseudovirus neutralization [7] | IC80, pseudovirus neutralization [7] | IC50, pseudovirus neutralization [8] | IC80, pseudovirus neutralization [8] | IC50, pseudovirus neutralization [9] | IC80, pseudovirus neutralization [9] | IC50, pseudovirus neutralization [10] | IC80, pseudovirus neutralization [10] | IC50, pseudovirus neutralization [11] | IC80, pseudovirus neutralization [11] | IC50, pseudovirus neutralization [12] | IC80, pseudovirus neutralization [12] | IC50, pseudovirus neutralization [13] | IC80, pseudovirus neutralization [13] | IC50, pseudovirus neutralization [14] | IC80, pseudovirus neutralization [14] | IC50, pseudovirus neutralization [15] | IC80, pseudovirus neutralization [15] | other results
1 | MX501 (A19-46 × A23-58H/B1-182L/A19-61 × A23-58H/B1-182L) | 0.0405 nM | 0.0927 nM | 0.0285 nM | 0.0876 nM | 0.0097 nM | 0.025 nM |  |  |  |  |  |  |  |  |  |  |  |  |  |  | IC50, pseudovirus neutralization [1]: > 10000 nM; IC80, pseudovirus neutralization [1]: > 10000 nM; IC50, pseudovirus neutralization [2]: > 10000 nM; IC80, pseudovirus neutralization [2]: > 10000 nM; IC50, pseudovirus neutralization [3]: > 10000 nM; IC80, pseudovirus neutralization [3]: > 10000 nM; IC50, pseudovirus neutralization [4]: > 10000 nM; IC80, pseudovirus neutralization [4]: > 10000 nM; IC50, pseudovirus neutralization [5]: 20.5 nM; IC80, pseudovirus neutralization [5]: 77.2 nM
2 | A19-61 mAb (antibody) | 0.11 nM | 0.298 nM | > 66.7 nM | > 66.7 nM | 0.725 nM | 2.24 nM | 0.264 nM | 0.43 nM | 0.209 nM | 0.292 nM | 0.0418 nM | 0.0836 nM | 0.0815 nM | 0.173 nM | 0.0557 nM | 0.121 nM | 0.135 nM | 0.288 nM | 8.43 nM | > 66.7 nM | IC50, pseudovirus neutralization [16]: 0.11 nM; IC80, pseudovirus neutralization [16]: 0.186 nM; IC50, pseudovirus neutralization [17]: 0.0686 nM; IC80, pseudovirus neutralization [17]: 0.113 nM; IC50, pseudovirus neutralization [18]: 0.175 nM; IC80, pseudovirus neutralization [18]: 0.325 nM
3 | A19-46 mAb (antibody) | > 66.7 nM | > 66.7 nM | 0.958 nM | 2.28 nM | 0.0645 nM | 0.177 nM | 1.34 nM | 3.81 nM | > 66.7 nM | > 66.7 nM | 0.803 nM | 1.88 nM | > 66.7 nM | > 66.7 nM | > 66.7 nM | > 66.7 nM | 0.26 nM | 0.7 nM | 11.6 nM | 21 nM | IC50, pseudovirus neutralization [16]: > 66.7 nM; IC80, pseudovirus neutralization [16]: > 66.7 nM; IC50, pseudovirus neutralization [17]: 0.807 nM; IC80, pseudovirus neutralization [17]: 2.07 nM; IC50, pseudovirus neutralization [18]: 0.19 nM; IC80, pseudovirus neutralization [18]: 0.486 nM
4 | B1-182 mAb (antibody) | 0.739 nM | 5.92 nM | 1.03 nM | 4.44 nM | 2.34 nM | 8.19 nM | 0.0695 nM | 0.219 nM | 0.0099 nM | 0.0254 nM | 0.0639 nM | 0.183 nM | 0.0261 nM | 0.086 nM | 0.008 nM | 0.0192 nM | 0.0182 nM | 0.0429 nM | 0.0549 nM | 0.11 nM | IC50, pseudovirus neutralization [16]: 0.0049 nM; IC80, pseudovirus neutralization [16]: 0.015 nM; IC50, pseudovirus neutralization [17]: 0.0357 nM; IC80, pseudovirus neutralization [17]: 0.139 nM; IC50, pseudovirus neutralization [18]: 0.0262 nM; IC80, pseudovirus neutralization [18]: 0.0844 nM
5 | A23-58.1 (antibody) |  |  |  |  |  |  |  |  |  |  |  |  |  |  |  |  |  |  |  |  | IC50, pseudovirus neutralization [19]: 98.1 nM; IC80, pseudovirus neutralization [19]: 782 nM
